Drawing on patent US20150307628A1, this text covers greater heterodimer formability than the variant without disulfide bridge for two substances.

Assay [1] concerns the target dummy-Fc heavy chain constant region with CH3B of mutant EW-RVT (S-S) (Q347R/S354C/D399V/F405T) (human) [IgG part: P0DOX5]. Kind of assay: non-reducing SDS-PAGE, EW-RVT (S-S) against EW-RVT.
Assay [2] addresses dummy-Fc heavy chain constant region with CH3B of mutant SW-WVT (S-S) (Y349C/E357W/D399V/F405T) (human) [IgG part: P0DOX5]. Kind of assay: non-reducing SDS-PAGE, SW-WVT (S-S) against SW-WVT.

For “hAY4a scFv-Fc heavy chain with CH3A of mutant EW-RVT (S-S) (Y349C/K360E/K409W) (from UniProt P0DOX5 227-449) (Fc fusion)”, the greater heterodimer formability than the variant without disulfide bridge in assay [1] was 3%.

The substance “hAY4a scFv-Fc heavy chain with CH3A of mutant SW-WVT (S-S) (Y349S/S354C/K409W) (from UniProt P0DOX5 227-449) (Fc fusion)” yielded a greater heterodimer formability than the variant without disulfide bridge in assay [2] of 9%.
